Experimental data: the supplement of paper PMC10126150
± gives the standard deviation of the averaged measurements.

System: ATP
Assay: switch fluorescence ratio, 500 uM ATP over buffer (Cy3 cluster intensity, sum of 5 cycles each) (fold (ratio)); higher = stronger signal-on switching upon ATP binding; sequences stand for … in TCGTCGGCAGCGTCAGATGTGTATAAGAGACAGTTTTTTTTTTTTTTTTTTTTTTTTT…TC
Conditions: aptamer strand: ATP DNA aptamer (quencher-CACCTGGGGGAGTATTGCGGAGGAAGG + anchor), 100 nM annealed; ATP concentration: 500 uM
Method in brief: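 Imaging in selection buffer was followed by imaging after 15 min with 500 uM ATP at 22 °C, for Cy3-labelled switching-strand clusters annealed to 100 nM quencher-labelled ATP aptamer on a modified Illumina MiSeq flow-cell. Five of these buffer/ATP cycles ran, separated by NaOH stripping and re-annealing. The fluorescence ratio per cluster is summed target-cycle over summed buffer-cycle Cy3 intensity, averaged per switch-domain sequence; clusters outside 100-1000 RFU were removed.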
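Note: ATP exposure 15 min at 22 °C before imaging.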

Sequence | switch fluorescence ratio
GCGTTTGTGC | 1.007 ± 0.01
GCGGGGGGTG | 1.01 ± 0.03
GATGAATTGG | 0.975 ± 0.012
CTGGTTTAGC | 1 ± 0.016
TACTTTGTC | 1.03 ± 0.021
CAGTGGCGTA | 1.01 ± 0.011
TCCATCTTTT | 0.999 ± 0.014
TCTGATTATG | 0.987 ± 0.011
TGCCGTCGGC | 0.949 ± 0.06
GCAAAGGGGT | 0.996 ± 0.021
CCCCGAAACT | 2.28 ± 1.5
GGGGGATCTT | 1 ± 0.03
GACTGTAAGG | 0.997 ± 0.08
TTAGGGGCTT | 1.02 ± 0.033
GGTTGATAAT | 1.002 ± 0.0043
AGAGCACTTG | 1.025 ± 0.0032
TTGGGGGGAG | 0.99 ± 0.027
TTCTGAGCTT | 1.07 ± 0.025
TGGGGAGGCA | 0.97516 ± 0.00042
TTGAAAGTG | 0.9785 ± 0.0043
CGGGGAATTG | 1 ± 0.014
ATGGTTTGGT | 0.997 ± 0.024
AGCGTATGCA | 1.02 ± 0.024
TTTTGGGTCC | 1.06 ± 0.04
TCATCGTGCC | 0.99 ± 0.032

Sequence | switch fluorescence ratio
GTTGTATGGA | 0.995 ± 0.034
TCTAAGTCGG | 0.987 ± 0.015
TAATAGGGGC | 0.991 ± 0.05
TGAGTTCGGC | 1.03 ± 0.015
TGTAATTACA | 1.003 ± 0.0061
GGTGGGTATA | 1 ± 0.037
AATTTTTAT | 1 ± 0.0022
GACAAGTATT | 1.01 ± 0.013
GAGTTTAATC | 1 ± 0.018
TTTTCAGTAG | 0.9996 ± 0.0039
CCGTGTTGCG | 1.01 ± 0.022
TTAGGGGGCC | 1.07 ± 0.035
AAAAACTAGT | 1.04 ± 0.035
CCACCAATTT | 1.8 ± 1.2
ATTGAGTGGC | 0.928 ± 0.026
CATTAAGGGT | 0.992 ± 0.029
GAGAGGGGCA | 0.999 ± 0.018
CCAGGGGGTC | 1.11 ± 0.14
GCTAGTATAA | 0.987 ± 0.027
GTAAGATATT | 0.9994 ± 0.0098
GCTGTTGGTG | 1.002 ± 0.0037
CCGGAGTGGA | 2.56 ± 1.3
GGATGCATAT | 0.9894 ± 0.0044
TTGTTTGCCT | 1.04 ± 0.037
GATAATTAGG | 1.01 ± 0.02

Sequence | switch fluorescence ratio
GGGATTCTTG | 1.01 ± 0.04
TTTGATGATA | 0.981 ± 0.014
CAGGGAATAG | 1.07 ± 0.049
GATATTAAAG | 1.02 ± 0.014
TAGATGGGGG | 1 ± 0.011
TTGAGTTTAA | 1.003 ± 0.0065
GATTAAAATT | 0.951 ± 0.064
TAACGAACGC | 1.65 ± 0.086
TGAGTCTGTT | 1.01 ± 0.028
TAGGGAGAGT | 1.01 ± 0.022
TTTTTTTAGA | 0.995 ± 0.022
GCAGTATGGT | 0.985 ± 0.016
GCTTGGCTAT | 0.989 ± 0.022
AAACGTACTT | 1.58 ± 0.086
GGGTAAGCCC | 0.987 ± 0.015
TTCGTTGGTG | 0.969 ± 0.035
ATTTAAGTT | 1.0014 ± 0.00081
GGTGTGAATT | 1.02 ± 0.034
GCAGGTTTGG | 0.991 ± 0.033
CAATGGGGTA | 0.992 ± 0.012
TCCTATTGTG | 1.03 ± 0.042
CGGAAAAAGG | 0.992 ± 0.034
TCCTTTAGCC | 1.23 ± 0.015
TATCTATCTT | 0.994 ± 0.0066
CGATCGGCTG | 0.993 ± 0.019

Sequence | switch fluorescence ratio
GGCGTCCTCT | 1.05 ± 0.034
ATTCGTAGGG | 1.01 ± 0.012
TTTAATTCT | 0.989 ± 0.022
AGAGGGGGCC | 0.98 ± 0.18
TTGAGAAAGG | 1.02 ± 0.025
ATCGGGCGGG | 1.02 ± 0.02
CGCGGGGTGC | 1.06 ± 0.097
CTAGGGGATT | 1.02 ± 0.011
GAAATCATCA | 0.96 ± 0.025
AGATTATTGA | 0.943 ± 0.031
GGTTACTGGT | 1.01 ± 0.03
ACCCCTATTT | 1.1116 ± 0.00045
AGTGTTGTGC | 1.01 ± 0.033
GTGGTTTGCT | 1.01 ± 0.013
GTTAGTACTA | 1 ± 0.038
ATGTTGAAGG | 1.03 ± 0.069
AAGGAAAAAC | 1.03 ± 0.029
GATAAAATAG | 1.17 ± 0.2
AGAGGCGCGT | 0.946 ± 0.036
TAAGGATTGT | 1.032 ± 0.0063
AATATTGTT | 0.996 ± 0.01
CGTATGGGAG | 0.9452 ± 0.0036
GGAGAGGGGC | 0.996 ± 0.091
GGGGCTGTGC | 0.976 ± 0.034
AGGCCTGAAA | 0.983 ± 0.07

Sequence | switch fluorescence ratio
AACTGGTGTC | 1.006 ± 0.003
CCACTGGGCG | 1.07 ± 0.014
AATGGCGGTA | 0.9928 ± 0.0082
TATTTCTCGT | 1.01 ± 0.056
AAGCTGGTG | 1.09 ± 0.042
GTTGGTTGTG | 0.981 ± 0.0053
TAGAGGTAAT | 1.01 ± 0.022
ATACGTGGGA | 1.01 ± 0.032
TCTGGGGCTT | 1.0237 ± 0.00017
CAGAGGGAAT | 1.05 ± 0.032
GGGCTATGGG | 0.997 ± 0.049
CGAAGGGTAA | 1.02 ± 0.028
GGAGGGAGGG | 1.02 ± 0.059
CGGATTTCAG | 0.951 ± 0.03
CATGGAGTAC | 1.02 ± 0.032
TAGATGTTCG | 0.978 ± 0.044
TGTGCGTGAG | 0.9776 ± 0.0015
TTGAGTCAAT | 1.044 ± 0.0078
GTTATAACG | 1 ± 0.05
CGGGTGATTA | 1 ± 0.035
GAGAGTGCGG | 1.04 ± 0.0067
TTGAGTGGGA | 0.989 ± 0.02
GGTGCTTAGG | 1.02 ± 0.024
GTGGGTTCGG | 1 ± 0.031
GATTTTACGA | 0.994 ± 0.052

Sequence | switch fluorescence ratio
GGATGGGGGA | 1.02 ± 0.03
AGCTAATTCG | 1.03 ± 0.045
CGAAGTATAG | 1.37 ± 0.038
GGCTAAAGCG | 0.974 ± 0.012
GATACATCGG | 1.03 ± 0.018
GAAAGCCTTT | 1 ± 0.012
CGAGCATAGG | 1.23 ± 0.085
ACGGTTGTGC | 1.01 ± 0.04
GCGGGCGGCG | 0.974 ± 0.03
TTATGAATGC | 0.999 ± 0.055
GGGGGGCAGA | 1 ± 0.029
CGCATCGCGT | 1.02 ± 0.015
TTGGAACATA | 0.986 ± 0.03
GATGATGGTG | 0.968 ± 0.011
TTCTTATGAT | 0.9721 ± 0.0011
GAAAGTGCAA | 1.09 ± 0.02
CAGGATAGGC | 1.003 ± 0.0044
TATATGGCGA | 0.995 ± 0.031
TCGACCTAAT | 1.077 ± 0.01
GATGTGCCAG | 0.969 ± 0.017
CCGTTATCTC | 2.81 ± 1
GGATGTATCT | 0.995 ± 0.012
GGGTAAAGAA | 1.01 ± 0.036
CGGGGGGGTC | 1 ± 0.036
ATTAACGAGG | 1.04 ± 0.013

Sequence | switch fluorescence ratio
CGCATATGGC | 2.459 ± 0.016
TTATGGAAGT | 0.989 ± 0.025
ACCTGAATAG | 1.14 ± 0.11
GCCATGTTGG | 1.004 ± 0.0033
ACAGCGGGGG | 1.03 ± 0.045
GGTATTGGAC | 0.9947 ± 0.0058
CTAACGTATA | 1.18 ± 0.036
CATATGGGGC | 1.048 ± 0.00092
GTTGTTGAAT | 0.992 ± 0.026
GGGCGGGTGT | 0.987 ± 0.059
ACGGAAGGGA | 0.991 ± 0.036
GGTTATTGCT | 1.02 ± 0.0033
ACAGGGGCCA | 0.999 ± 0.011
ATCGGTGGGA | 0.992 ± 0.0031
CCGTTAGCGG | 1.1074 ± 0.00044
GATTTTGTAA | 1.012 ± 0.004
TGGGTTTTTG | 1.01 ± 0.039
GGGGACTTGG | 1 ± 0.027
AGCTCGGGTA | 0.998 ± 0.025
CTAGGGAGAG | 0.9912 ± 0.0069
CTAACTTATT | 1.01 ± 0.013
AAAGGGACGT | 0.991 ± 0.051
GCAGCTTCGG | 0.984 ± 0.014
ACTACTGGTT | 1.03 ± 0.03
GCAATGGTGG | 1.04 ± 0.035

Sequence | switch fluorescence ratio
TGGGAAGTTT | 0.978 ± 0.013
CAAGTCTATT | 1.01 ± 0.04
GGGGGCCGGG | 1.01 ± 0.052
GGGCTGATAG | 1.01 ± 0.025
TGGGCGTTCT | 1.03 ± 0.081
AATTAATGGT | 0.978 ± 0.011
GAGTGCCGTG | 1.01 ± 0.065
AACTAGTCAA | 1.015 ± 0.0081
ACGGCTTAGG | 1.03 ± 0.034
TCAAATTAGC | 0.986 ± 0.023
CAGGGACCTG | 1.03 ± 0.032
CTCAGTTTCT | 1.02 ± 0.03
AGCCCTGGCG | 0.9504 ± 0.0071
AAGGATGTTT | 0.9824 ± 0.0033
AATAGCATGT | 0.981 ± 0.012
GATTGACGGC | 1 ± 0.045
ACGGCGAGGG | 1.02 ± 0.039
GGTACAGGGA | 1.02 ± 0.015
ACGGGGGAAC | 1.046 ± 0.0071
ATAGAGGGTG | 1.05 ± 0.071
ATATATGTAC | 1.085 ± 0.0016
GGGGAAGGCC | 1.01 ± 0.018
GCCTGCATTT | 1.02 ± 0.021
GGCCCGGTTT | 0.99 ± 0.029
CGCGGGAGAG | 1.02 ± 0.04
